Biological target: GST-Vif fusion protein (HIV-1 (HIV-1NL4-3)) (UniProt P12504)
Test: Vif-Vif binding assay (GST pull-down) without peptide, set as 100%

Chain of in vitro translated ^35S-labeled HIV-1NL4-3 Vif protein, P12504 1-192 (other; ^35S-labeled (in vitro translation in the presence of ^35S-methionine); other documents disagree on this pair) (P12504 whole entry): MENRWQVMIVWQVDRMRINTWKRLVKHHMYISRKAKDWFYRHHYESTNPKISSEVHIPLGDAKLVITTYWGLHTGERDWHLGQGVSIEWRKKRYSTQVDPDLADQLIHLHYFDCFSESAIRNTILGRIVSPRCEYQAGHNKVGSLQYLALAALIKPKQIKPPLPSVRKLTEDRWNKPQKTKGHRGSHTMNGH
Chain of GST-Vif fusion protein (HIV-1 (HIV-1NL4-3)) (P12504 whole entry, the tested form may be a part): as the sequence (P12504 whole entry) above

in vitro translated ^35S-labeled HIV-1NL4-3 Vif protein, P12504 1-192 (other; ^35S-labeled (in vitro translation in the presence of ^35S-methionine); other documents disagree on this pair)
^35S-Vif binds with GST-Vif (%): 100%
